{"source": "patent US20140242061", "proteins": {"B1": {"name": "velaglucerase alfa (protein)", "chain": "ARPCIPKSFGYSSVVCVCNATYCDSFDPPTFPALGTFSRYESTRSGRRMELSMGPIQANHTGTGLLLTLQPEQKFQKVKGFGGAMTDAAALNILALSPPAQNLLLKSYFSEEGIGYNIIRVPMASCDFSIRTYTYADTPDDFQLHNFSLPEEDTKLKIPLIHRALQLAQRPVSLLASPWTSPTWLKTNGAVNGKGSLKGQPGDIYHQTWARYFVKFLDAYAEHKLQFWAVTAENEPSAGLLSGYPFQCLGFTPEHQRDFIARDLGPTLANSTHHNVRLLMLDDQRLLLPHWAKVVLTDPEAAKYVHGIAVHWYLDFLAPAKATLGETHRLFPNTMLFASEACVGSKFWEQSVRLGSWDRGMQYSHSIITNLLYHVVGWTDWNLALNPEGGPNWVRNFVDSPIIVDITKDTFYKQPMFYHLGHFSKFIPEGSQRVGLVASQKNDLDAVALMHPDGSAVVVVLNRSSKDVPLTIKDPAVGFLETISPGYSIHTYLWRRQ"}}, "molecular_target": "T1, human macrophage mannose receptor (MMR), P22897", "T1 chain": "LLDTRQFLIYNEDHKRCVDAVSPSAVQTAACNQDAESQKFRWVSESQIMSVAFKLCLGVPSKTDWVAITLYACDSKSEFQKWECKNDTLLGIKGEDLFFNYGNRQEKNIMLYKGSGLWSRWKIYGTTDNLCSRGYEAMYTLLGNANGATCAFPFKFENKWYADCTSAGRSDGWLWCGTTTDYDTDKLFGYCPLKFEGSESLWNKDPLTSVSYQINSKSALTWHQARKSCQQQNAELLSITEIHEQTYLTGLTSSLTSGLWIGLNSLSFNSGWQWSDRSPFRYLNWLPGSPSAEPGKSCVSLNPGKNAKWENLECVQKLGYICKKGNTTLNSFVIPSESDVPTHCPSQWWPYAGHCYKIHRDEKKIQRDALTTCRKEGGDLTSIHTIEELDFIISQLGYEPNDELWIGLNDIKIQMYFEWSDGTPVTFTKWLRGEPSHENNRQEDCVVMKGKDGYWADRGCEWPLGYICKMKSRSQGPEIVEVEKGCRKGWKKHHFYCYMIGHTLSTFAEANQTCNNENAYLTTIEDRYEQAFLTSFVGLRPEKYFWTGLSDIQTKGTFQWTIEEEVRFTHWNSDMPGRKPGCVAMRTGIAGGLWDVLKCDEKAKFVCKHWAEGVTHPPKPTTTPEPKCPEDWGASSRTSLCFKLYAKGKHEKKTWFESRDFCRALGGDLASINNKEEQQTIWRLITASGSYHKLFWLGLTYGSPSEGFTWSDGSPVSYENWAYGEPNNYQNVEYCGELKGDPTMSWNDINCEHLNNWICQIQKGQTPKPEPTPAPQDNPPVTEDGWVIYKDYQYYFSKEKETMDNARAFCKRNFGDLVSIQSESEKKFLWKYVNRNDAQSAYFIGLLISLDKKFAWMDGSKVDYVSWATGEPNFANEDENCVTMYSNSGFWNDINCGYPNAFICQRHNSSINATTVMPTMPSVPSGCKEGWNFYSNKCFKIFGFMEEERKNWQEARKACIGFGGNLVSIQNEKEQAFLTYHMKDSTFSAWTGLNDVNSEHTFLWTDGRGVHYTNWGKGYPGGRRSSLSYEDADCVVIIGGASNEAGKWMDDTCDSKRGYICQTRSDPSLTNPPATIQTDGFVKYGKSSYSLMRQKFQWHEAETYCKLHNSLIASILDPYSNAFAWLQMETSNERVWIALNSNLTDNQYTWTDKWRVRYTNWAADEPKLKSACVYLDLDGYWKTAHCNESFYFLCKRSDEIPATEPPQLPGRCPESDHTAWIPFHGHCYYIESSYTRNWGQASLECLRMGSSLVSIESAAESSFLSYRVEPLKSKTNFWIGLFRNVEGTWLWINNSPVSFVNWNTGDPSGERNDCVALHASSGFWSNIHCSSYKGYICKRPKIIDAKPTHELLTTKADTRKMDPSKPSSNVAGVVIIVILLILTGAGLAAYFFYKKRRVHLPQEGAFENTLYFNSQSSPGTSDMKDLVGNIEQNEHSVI", "data": [{"protein": "B1", "values": [{"measurement": "internalization rate in U937-derived macrophages (4-MU-glc activity assay), relative to imiglucerase", "result": "velaglucerase alfa is internalized up to 2.5-fold more efficiently than imiglucerase"}]}]}
